Data set [1] deals with isophthalate dioxygenase from Comamonas testosteroni KF1 (IPDOKF1) (Comamonas testosteroni KF1). Put plainly: SEC; gel filtration on a Superdex 200 column; peaks at 62 mL (trimer, ~150 kDa) and 73 mL (monomer, ~50 kDa).
The target is the same in data set [2]. Description: crystal structure; apo IPDOKF1 at 2.96 Å and isophthalate complex at 3.3 Å, space group P 2_(1) 3, one monomer per asymmetric unit; the trimer arises by the threefold axis.
The target in data set [3] is T1, IPDOKF1 (isophthalate dioxygenase, IPDO) (Comamonas testosteroni, UniProt B7WRK8).
T1 construct: gene CtesDRAFT_PD2139; 424 residues per protomer; ~50 kDa monomer, ~150 kDa trimer; primers encode N-terminus MNKEMSE and C-terminus PVFSL; Rieske [2Fe-2S]; C69/H71/C88/H91, Fe H177/H182/D337; assayed with separate reductase IPDRKF1
T1 sequence (B7WRK8 1-424): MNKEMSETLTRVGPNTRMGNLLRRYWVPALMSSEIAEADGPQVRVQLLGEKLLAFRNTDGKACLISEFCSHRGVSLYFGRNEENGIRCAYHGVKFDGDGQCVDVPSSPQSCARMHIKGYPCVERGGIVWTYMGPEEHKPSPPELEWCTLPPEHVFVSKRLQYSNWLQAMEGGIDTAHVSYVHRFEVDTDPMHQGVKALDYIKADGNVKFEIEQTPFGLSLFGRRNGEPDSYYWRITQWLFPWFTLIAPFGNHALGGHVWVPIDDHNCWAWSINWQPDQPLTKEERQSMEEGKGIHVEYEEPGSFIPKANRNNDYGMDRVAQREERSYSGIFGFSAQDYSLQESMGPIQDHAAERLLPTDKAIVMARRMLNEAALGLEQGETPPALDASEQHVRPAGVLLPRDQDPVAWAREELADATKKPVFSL
Put plainly: X-ray co-crystal structure, […] Å. It counts as binding. To be noted: co-crystallized with 5 mM isophthalate, 0.1 M Tris-HCl pH 7.0; active site near mononuclear iron.

Substrate in the data set “purified protein”: O=C(O)c1cccc(C(=O)O)c1
Description: purified protein. To be noted: with reductase IPDRKF1, 1 mM NAD(P)H, 100 µM Fe(NH4)2(SO4)2, air-saturated 50 mM Tris, 25 °C, pH 7.5 in table footnote but pH 8.0 in methods.

Substrate in data set [4]: O=C(O)c1ccc(C(=O)O)cc1
Description: O2 consumption, Clark-type oxygen electrode. It counts as biochemical, Comamonas testosteroni. Particulars: with reductase IPDRKF1, 1 mM NAD(P)H, 100 µM Fe(NH4)2(SO4)2, air-saturated 50 mM Tris, 25 °C, pH 7.5 in table footnote but pH 8.0 in methods.

Substrate in data set [5]: O=C(O)c1ccccc1C(=O)O
Put plainly: O2 consumption, Clark-type oxygen electrode. It counts as biochemical, Comamonas testosteroni. Particulars: with reductase IPDRKF1, 1 mM NAD(P)H, 100 µM Fe(NH4)2(SO4)2, air-saturated 50 mM Tris, 25 °C, pH 7.5 in table footnote but pH 8.0 in methods.

The stoichiometry N is the number of molecules, sites or subunits per partner or assembly. For the molecule “isophthalate dioxygenase from Comamonas testosteroni KF1 (IPDOKF1) (enzyme)”, the stoichiometry N in data set [1] and in data set [2] was 3 each time.
With `O=C(O)c1cccc(C(=O)O)c1` [IPA, isophthalate], in data set [3], the “X-ray co-crystal structure, 3.3 Å” value is “co-crystallized IPDOKF1 with its substrate and determined the structure of the isophthalate-bound complex”.

B1: IPDOKF1 (isophthalate dioxygenase, IPDO) (Comamonas testosteroni KF-1) (protein)
chain: MNKEMSETLTRVGPNTRMGNLLRRYWVPALMSSEIAEADGPQVRVQLLGEKLLAFRNTDGKACLISEFCSHRGVSLYFGRNEENGIRCAYHGVKFDGDGQCVDVPSSPQSCARMHIKGYPCVERGGIVWTYMGPEEHKPSPPELEWCTLPPEHVFVSKRLQYSNWLQAMEGGIDTAHVSYVHRFEVDTDPMHQGVKALDYIKADGNVKFEIEQTPFGLSLFGRRNGEPDSYYWRITQWLFPWFTLIAPFGNHALGGHVWVPIDDHNCWAWSINWQPDQPLTKEERQSMEEGKGIHVEYEEPGSFIPKANRNNDYGMDRVAQREERSYSGIFGFSAQDYSLQESMGPIQDHAAERLLPTDKAIVMARRMLNEAALGLEQGETPPALDASEQHVRPAGVLLPRDQDPVAWAREELADATKKPVFSL
One may read the Km as the concentration of substrate that gives half-maximal velocity. One may read the kcat as the number of substrate molecules converted per active site and unit of time at saturation. Usually kcat/Km stands for the turnover number divided by the Michaelis constant. On to B1, for which, in the data set “purified protein”, the Michaelis-Menten constant (Km) stood at 31 ± 7 µM, the kcat was found to be 4.9 s⁻¹ and the kcat/Km came out at 160000 M⁻¹ s⁻¹.

B2: IPDOKF1 (isophthalate dioxygenase, IPDO) (Comamonas testosteroni KF-1; F249H/V178A) (protein)
chain: MNKEMSETLTRVGPNTRMGNLLRRYWVPALMSSEIAEADGPQVRVQLLGEKLLAFRNTDGKACLISEFCSHRGVSLYFGRNEENGIRCAYHGVKFDGDGQCVDVPSSPQSCARMHIKGYPCVERGGIVWTYMGPEEHKPSPPELEWCTLPPEHVFVSKRLQYSNWLQAMEGGIDTAHASYVHRFEVDTDPMHQGVKALDYIKADGNVKFEIEQTPFGLSLFGRRNGEPDSYYWRITQWLFPWFTLIAPHGNHALGGHVWVPIDDHNCWAWSINWQPDQPLTKEERQSMEEGKGIHVEYEEPGSFIPKANRNNDYGMDRVAQREERSYSGIFGFSAQDYSLQESMGPIQDHAAERLLPTDKAIVMARRMLNEAALGLEQGETPPALDASEQHVRPAGVLLPRDQDPVAWAREELADATKKPVFSL
notes: 424 residues per protomer; ~50 kDa monomer, ~150 kDa trimer; primers encode N-terminus MNKEMSE and C-terminus PVFSL; Rieske [2Fe-2S]; C69/H71/C88/H91, Fe H177/H182/D337; assayed with separate reductase IPDRKF1
Consider B2, for which, in data set [4], the Km was found to be 95 ± 11 µM, the kcat came out at 4.9 ± 0.2 s⁻¹ and the kcat/Km came out at 51000 ± 6000 M⁻¹ s⁻¹. Besides, in data set [5], the Km came to 91 ± 16 µM, the turnover number (kcat) is 4 ± 0.2 s⁻¹ and the kcat/Km amounted to 44000 ± 8000 M⁻¹ s⁻¹. In the data set “purified protein”, the Michaelis-Menten constant (Km) is 32 ± 8 µM, the turnover number (kcat) came out at 4.8 s⁻¹ and the kcat/Km came out at 148000 M⁻¹ s⁻¹.

The record behind these values is paper PMC12445078, “Structure-guided engineering of an aromatic ring-hydroxylating dioxygenase for broad-spectrum phthalate degradation” (Journal of Bacteriology, 2025).
